Results on one protein are retold here after publication PMC4571342 (Molecular Biology of the Cell, 2015).

The series deals with the molecule itself. The experiment in a line: AUC.

A word on the stoichiometry N: it is the number of molecules, sites or subunits per partner or assembly.

B1: C-terminal region (amino acids 104–278) of Lnp1 fused to maltose-binding protein (domain or fragment)
chain: FYNNNRLRKLAKLRAIHQKKLEKLKEETHYNATSSIIQRFSSGEDQNDDAMVLLDDELNAKYQELNNLKTELEKFKKESHVKGLKKEDSDAWFDKIISVLAGGNELDSTSSLSPFKKIICPQCHWKSNCYRLASKPIIFICPHCNHKIDEVKEREDAIEAKQPAQPSQSEKEKTK
On to B1, for which the “stoichiometry N” value worked out at 2.
